The source of these data is a protein production outcome set (Wang et al. 2014).

The nature of this series: label from the status in PepcDB records.
For the sequence “MGHHHHHHSHMDTPENVLQMLEAHMQSYKGNDPLGEWERYIQWVEENFPENKEYLITLLEHLMKEFLDKKKYHNDPRFISYCLKFAEYNSDLHQFFEFLYNHGIGTLSSPLYIAWAGHLEAQGELQHASAVLQRGIQNQAEPREFLQQQYRLFQTRLTETHLPAQAR”, the protein production result was “failed”.

“MGHHHHHHSHMHGWTWSVPKFMKRMKVPDYKDKAVFGVPLIVHVQRTGQPLPQSIQQALRYLRSNCLDQVGLFRKSGVKSRIHALRQMNENFPENVNYEDQSAYDVADMVKQFFRDLPEPLFTNKLSETFLHIYQYVSKEQRLQAVQAAILLLADENREVLQTLLCFLNDVVNLVEENQMTPMNLAVCLAPSLFHLNLL”: the protein production entry is given as “failed”.

“MGHHHHHHSHMKKDPTLQQAHDTMRFFRRGGSLRMLLDDDVTQPLNTVYRYAMQLMEVKEFAGAARLFQLLTIYDAWSFDYWFRLGECCQAQKHWGEAIYAYGRAAQIKIDAPQAPWAAAECYLACDNVCYAIKALKAVVRICGEVSEHQILRLRAEKMLQQLSDRS”: the protein production entry is reported as “failed”.

On to “MGHHHHHHSHMNSTECTLILTEGDSAKTLAVSGLGVVGRDKYGVFPLRGKILNVREASHKQIMENAEINNIIKIVGLQYKKNYEDEDSLKTLRYGKIMIMTDQDQDGSHIKGLLINFIHHNWPSLLRHRFLEEFITPIVKVSKNKQEMAFYSLPEFEEWKSSTPNHKKWKVKYYKGLGTSTSKEAKEYFADMKRHRIQFKYSGPEDDAAISLAFSKKQIDDRKEWLTNFMEDR”, for which the protein production entry is given as “failed”.

Consider “MGHHHHHHSHMPLVKRNIDPRHLCHTALPRGIKNELECVTNISLANIIRQLSSLSKYAEDIFGELFNEAHSFSFRVNSLQERVDRLSVSVTQLDPKEEELSLQDITMRKAFRSSTIQDQQLFDRKTLPIPLQETYDVCEQPPPLNILT”, for which the protein production entry was “not failed”.

Consider “MGHHHHHHSHMQFFLPDATATHQFGVLLGQRLLASSTLLLEGDLGSGKTTLTQGIAQGLGIPDVVASPTFTLVCEYSEGRLPLYHFDLYRLEAPDVARLLPELYWEGVEFEPGLVVIEWPERLPYRPAAYWSLVLTPSLELEGRQLVLTPVNQDPTTVANLEVQLAAQFRARPATAES”, for which the protein production entry was “not failed”.

In the case of “MGHHHHHHSHMSNPIQAEVLKRVAEVFDQHVPFHNLLGLDIKRYDIDGVEVAINMKPELIGNIHQQILHGGVTATVLDVVGGLTAFAGLVASRDDWTIEELQQRLQTLGTIDMRVDYLRPGRGQIFTGTGSVIRAGNRVSVCRMELHNEQGTHIAFGTGTYMVG”, the protein production entry is given as “not failed”.

For “MGHHHHHHSHMSTSLTGKPGALPANLDDMKVAELKQELKLRSLPVSGTKTELIERLRAYQDQISPVPGAPKAPAA”, the protein production entry is recorded as “failed”.

For the sequence “MGHHHHHHSHMTENDLASLFNNSALFKALGFNIIEINDDAIVMEINDDNPCHQGGFGVLTSLGINGAVISAALESAIGLCGFNALGREPAGVVELSVKILRVIRKKPCRVEARVDNKNNNVAFISATLISARGGICATGTGIVLKSKTTEATQ”, the protein production result is given as “not failed”.

For “MGHHHHHHSHMVDRLQSEPESIRKWREEQMERLEALDANSRKQEAEWKEKAIKELEEWYARQDEQLQKTKANNRVADEAFYKQPFADVIGYVTNINHPCYSLEQAAEEAFVNDIDESSPGTEWERVARLCDFNPKSS”, the protein production result is listed as “not failed”.

In the case of “MGHHHHHHSHMVTHSKFPAAGMSRPLDTSLRLKTFSSKSEYQLVVNAVRKLQESGFYWSAVTGGEANLLLSAEPAGTFLIRDSSDQRHFFTLSVKTQSGTKNLRIQCEGGSFSLQSDPRSTQPVPRFDCVLKLVHHYMPPPGAPSFPSPPTEPSSEVPEQPSAQPLPGSPPRRAYYIYSGGEKIPLVLSRPLSSNVATLQHLCRKTVNGHLDSYEKVTQLPGPIREFLDQYDAPL”, the protein production entry is on record as “failed”.

Turning to “MGHHHHHHSHSEVAIKIDFDFAPGSFDDQYQGCSKQVMEKLTQGDYFTKDIEAQKNYFRMWQKAHLAWLNQGKVLPQNMTTTHAVAILFYTLNSNVHSDFTRAMASVARTPQQYERSFHFKYLHYYLTSAIQLLRKDSIMENGTLCYEVHYRTKDVHFNAYTGATIRFGQFLSTSLLKEEAQEFGNQTLFTIFTCLGAPVQYFSLKKEVLIPPYELFKVINMSYHPRGNWLQLRSTGNLSTYNCQLLKASSKKC”, the protein production entry was “failed”.
